Reference: patent US20050226813A1, “Labelled somatostatin analogs backbone cyclized through metal complexation” (priority 2002, published 2005)
*1 amine or outer side, *2 acyl side, *3 side chain or, on linkers, in order; H or OH if unused. Where no end group is shown, it is not given here. [ ]: non-standard residue; d: D form. ReO = oxorhenium(V), one metal core binding both hemi-chelators, from trichlorooxobis(triphenylphosphine)rhenium(V); GlyN3 = N-(3-aminopropyl)glycine amide, Cys acylated on the omega-amine, NC(=O)CN(CCCN[*:3])[*:1]; N(2-Aminoethyl)Gly = O=C(CN(CCN[*:3])[*:1])[*:2]

B1: ReO-GF-22 (peptide)
peptide: CXFWWKTFG
modifications: L-Cys at 1; beta-Ala at 2 (written X); D-Trp at 5; GlyN3 building unit at 9 with D-Cys on its omega-amine; C-terminal amide; ReO (oxorhenium(V)) chelated by the two Cys closes the ring
B2: ReO-GF-23 (peptide)
peptide: CXFWWKTFG
modifications: D-Cys at 1; beta-Ala at 2 (written X); D-Trp at 5; GlyN3 building unit at 9 with L-Cys on its omega-amine; C-terminal amide; ReO (oxorhenium(V)) chelated by the two Cys closes the ring
B3: ReO-GF-25 (peptide)
peptide: CGFW[dW]KTF[GlyN3](Cys)-NH2
modifications: bridge (positions not given here) via ReO; not fully specified (bridges); also: N2S2 oxorhenium(V) chelate via the two Cys
B4: ReO-GF-26 (peptide)
peptide: CGFW[dW]KTF[GlyN3](dC)-NH2
modifications: bridge (positions not given here) via ReO; not fully specified (bridges); also: N2S2 oxorhenium(V) chelate via the two Cys
B5: ReO-GF-27 (peptide)
peptide: CGFWWKTFG
modifications: not fully specified; D-Cys at 1; D-Trp at 5; GlyN3 building unit at 9 with L-Cys on its omega-amine; C-terminal amide; ReO (oxorhenium(V)) chelated by the two Cys closes the ring
B6: ReO-GF-2 (peptide)
peptide: CXFWWKTFG
modifications: L-Cys at 1; GABA at 2 (written X); D-Trp at 5; GlyN6 building unit at 9 with D-Cys on its omega-amine; C-terminal amide; ReO (oxorhenium(V)) chelated by the two Cys closes the ring
notes: also called ReO-GF-02; ReO-LCys*-GABA-Phe-Trp-DTrp-Lys-Thr-Phe-GlyN6(DCys*)-NH2
B7: ReO-GF-29 (peptide)
peptide: CFWWKTFG
modifications: not fully specified; L-Cys at 1; D-Trp at 4; GlyN3 building unit at 8 with L-Cys on its omega-amine; C-terminal amide; ReO (oxorhenium(V)) chelated by the two Cys closes the ring
notes: also called ReO-LCys*-Phe-Trp-DTrp-Lys-Thr-Phe-GlyN3(LCys*)-NH2
B8: ReO-GF-30 (peptide)
peptide: CFW[dW]KTF[GlyN3](dC)-NH2
modifications: bridge (positions not given here) via ReO; not fully specified (bridges); also: N2S2 oxorhenium(V) chelate via the two Cys
B9: ReO-GF-31 (peptide)
peptide: CFWWKTFG
modifications: not fully specified; D-Cys at 1; D-Trp at 4; GlyN3 building unit at 8 with L-Cys on its omega-amine; C-terminal amide; ReO (oxorhenium(V)) chelated by the two Cys closes the ring
notes: also called ReO-DCys*-Phe-Trp-DTrp-Lys-Thr-Phe-GlyN3(LCys*)-NH2
B10: ReO-GF-33 (peptide)
peptide: CXFWWKTFG
modifications: L-Cys at 1; GABA at 2 (written X); D-Trp at 5; GlyN2 building unit at 9 with L-Cys on its omega-amine; C-terminal amide; ReO (oxorhenium(V)) chelated by the two Cys closes the ring
B11: ReO-GF-34 (peptide)
peptide: CXFWWKTFG
modifications: L-Cys at 1; GABA at 2 (written X); D-Trp at 5; GlyN2 building unit at 9 with D-Cys on its omega-amine; C-terminal amide; ReO (oxorhenium(V)) chelated by the two Cys closes the ring
B12: ReO-GF-35 (peptide)
peptide: CXFWWKTFG
modifications: D-Cys at 1; GABA at 2 (written X); D-Trp at 5; GlyN2 building unit at 9 with L-Cys on its omega-amine; C-terminal amide; ReO (oxorhenium(V)) chelated by the two Cys closes the ring
B13: ReO-GF-37 (peptide)
peptide: CXFWWKTFG
modifications: L-Cys at 1; beta-Ala at 2 (written X); D-Trp at 5; GlyN2 building unit at 9 with L-Cys on its omega-amine; C-terminal amide; ReO (oxorhenium(V)) chelated by the two Cys closes the ring
notes: also called ReO-LCys*-βAla-Phe-Trp-DTrp-Lys-Thr-Phe-GlyN2(LCys*)-NH2
B14: ReO-GF-38 (peptide)
peptide: CXFWWKTFG
modifications: L-Cys at 1; beta-Ala at 2 (written X); D-Trp at 5; GlyN2 building unit at 9 with D-Cys on its omega-amine; C-terminal amide; ReO (oxorhenium(V)) chelated by the two Cys closes the ring
B15: ReO-GF-3 (peptide)
peptide: CXFWWKTFG
modifications: D-Cys at 1; GABA at 2 (written X); D-Trp at 5; GlyN6 building unit at 9 with L-Cys on its omega-amine; C-terminal amide; ReO (oxorhenium(V)) chelated by the two Cys closes the ring
notes: also called ReO-GF-03; ReO-DCys*-GABA-Phe-Trp-DTrp-Lys-Thr-Phe-GlyN6(LCys*)-NH2
B16: ReO-GF-39 (peptide)
peptide: CXFWWKTFG
modifications: D-Cys at 1; beta-Ala at 2 (written X); D-Trp at 5; GlyN2 building unit at 9 with L-Cys on its omega-amine; C-terminal amide; ReO (oxorhenium(V)) chelated by the two Cys closes the ring
B17: ReO-GF-41 (peptide)
peptide: CGFW[dW]KTF[N(2-Aminoethyl)Gly](Cys)-NH2
modifications: bridge (positions not given here) via ReO; not fully specified (bridges); also: N2S2 oxorhenium(V) chelate via the two Cys
B18: ReO-GF-42 (peptide)
peptide: CGFW[dW]KTF[N(2-Aminoethyl)Gly](dC)-NH2
modifications: bridge (positions not given here) via ReO; not fully specified (bridges); also: N2S2 oxorhenium(V) chelate via the two Cys
B19: ReO-GF-43 (peptide)
peptide: CGFWWKTFG
modifications: not fully specified; D-Cys at 1; D-Trp at 5; GlyN2 building unit at 9 with L-Cys on its omega-amine; C-terminal amide; ReO (oxorhenium(V)) chelated by the two Cys closes the ring
B20: ReO-GF-45 (peptide)
peptide: CFW[dW]KTF[N(2-Aminoethyl)Gly](Cys)-NH2
modifications: bridge (positions not given here) via ReO; not fully specified (bridges); also: N2S2 oxorhenium(V) chelate via the two Cys
B21: ReO-GF-46 (peptide)
peptide: CFW[dW]KTF[N(2-Aminoethyl)Gly](dC)-NH2
modifications: bridge (positions not given here) via ReO; not fully specified (bridges); also: N2S2 oxorhenium(V) chelate via the two Cys
B22: ReO-GF-47 (peptide)
peptide: CFWWKTFG
modifications: not fully specified; D-Cys at 1; D-Trp at 4; GlyN2 building unit at 8 with L-Cys on its omega-amine; C-terminal amide; ReO (oxorhenium(V)) chelated by the two Cys closes the ring
B23: ReO-GF-5 (peptide)
peptide: CXFWWKTFG
modifications: L-Cys at 1; beta-Ala at 2 (written X); D-Trp at 5; GlyN6 building unit at 9 with L-Cys on its omega-amine; C-terminal amide; ReO (oxorhenium(V)) chelated by the two Cys closes the ring
B24: ReO-GF-6 (peptide)
peptide: CXFWWKTFG
modifications: L-Cys at 1; beta-Ala at 2 (written X); D-Trp at 5; GlyN6 building unit at 9 with D-Cys on its omega-amine; C-terminal amide; ReO (oxorhenium(V)) chelated by the two Cys closes the ring
notes: also called ReO-GF-06; ReO-LCys*-βAla-Phe-Trp-DTrp-Lys-Thr-Phe-GlyN6(DCys*)-NH2
B25: ReO-GF-7 (peptide)
peptide: CXFWWKTFG
modifications: not fully specified; D-Cys at 1; beta-Ala at 2 (written X); D-Trp at 5; GlyN6 building unit at 9 with L-Cys on its omega-amine; C-terminal amide; ReO (oxorhenium(V)) chelated by the two Cys closes the ring

Target: T1, human cloned SST-R2 (human, UniProt P30874 1-369)
T1 construct: whole, on cells; Assayed as membrane preparations of CHO cells expressing the cloned receptor, not as intact cells; also called hSST-R2; human SST-R2
Assay: inhibition of 125I-Tyr11-SRIF-14 binding to membranes of CHO cells expressing cloned human SST-R2
Description: The SST analogs were tested for their potency in inhibition of the binding of ¹²⁵I-Tyr¹¹-SRIF (based on the method described by Raynor et. al., Molecular Pharmnacology 43: 838, 1993) to membrane preparations expressing the transmembranal SST receptors (SST-R1, 2, 3, 4 or 5). The receptor preparations used for these tests were either from the cloned human receptors selectively and stably expressed in Chinese Hamster Ovary (CHO) cells or from cell lines naturally expressing the SST-R5. Typically, cell membranes were homogenized in Tris buffer in the presence of protease inhibitors and incubated for 30-40 minutes with ¹²⁵I-Tyr¹¹-SRIF with different concentrations of the tested sample. The binding reactions were filtered, the filters were washed and the bound radioactivity was counted in β counter after addition of scintillation colution. Non specific binding was defined as the radioactivity remaining bound in the presence of 1 μM unlabeled SRIF-14.

T1 sequence (P30874 whole entry): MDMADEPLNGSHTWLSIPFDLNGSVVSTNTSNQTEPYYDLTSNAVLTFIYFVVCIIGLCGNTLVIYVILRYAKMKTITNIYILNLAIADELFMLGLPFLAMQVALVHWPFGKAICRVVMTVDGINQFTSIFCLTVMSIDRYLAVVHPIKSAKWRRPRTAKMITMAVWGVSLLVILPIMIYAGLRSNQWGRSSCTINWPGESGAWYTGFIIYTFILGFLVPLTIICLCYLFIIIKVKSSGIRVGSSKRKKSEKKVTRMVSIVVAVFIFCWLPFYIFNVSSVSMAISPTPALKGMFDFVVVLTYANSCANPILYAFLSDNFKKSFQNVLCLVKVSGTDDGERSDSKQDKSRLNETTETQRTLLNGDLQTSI

Binder	IC50
B1	11 nM
B2	~10 nM
B3	> 10 nM
B4	~10 nM
B5	20 nM
B6	3.8 nM
B7	2 nM
B8	13 nM
B9	1.6 nM
B10	> 10 nM
B11	~100 nM
B12	> 10 nM
B13	3 nM
B14	> 10 nM
B15	6 nM
B16	10 nM
B17	> 10 nM
B18	> 10 nM
B19	> 10 nM
B20	> 10 nM
B21	> 10 nM
B22	> 10 nM
B23	35 nM
B24	5.3 nM
B25	12 nM
